From the nanobody polyreactivity screen of Harvey et al. (2022)

Test: yeast display, Sf9 membrane polyspecificity reagent, FACS + sequencing; frameworks hold sequencing errors
Procedure, shortened: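 Genes from sorted yeast were amplified by colony PCR, read by MiSeq 2 × 250 sequencing and filtered on CDR length. These cells carried a synthetic nanobody library in Saccharomyces cerevisiae BJ5465 and were sorted by FACS into low and high (top ~1%) gates on anti-HA and streptavidin fluorescence. Polyreactivity is labelled according to the gate of origin.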

| Sequence | polyreactivity (PSR sort gate) |
| --- | --- |
| QVQLVESGGGLVQAGGSLRISCAASGFTFNANAMGWYRQAPGNERELVAAISLSGGRTYYADSVKGRFTISRDNAKNTVYLQMNSLKPEDTAVYYCAASPDGSFRRFSRVVSGDYWGQGTQVTVSS | high polyreactivity |
| QVQLVESGGGLVQAGGSLRLSCAASGSILYPNAMGWYRQAPGKERELVAAISSSGGRTYYADSVKGRFTISRDNAKNTVYLQMNSLKPEDTAVYYCATVSIAGPRYDYWGQGTQVTVSS | high polyreactivity |
| QVQLVESGGGLVQAGGSLRLSCAASGGIFPAYAMGWYRQAPGKERELVASISSSGGSTYYADSVKGRFTISRDNAKNTVYLQMNSLKPEDTAVYYCNVAQYLRARRPVDYWGQGTQVTVSS | high polyreactivity |
| QVQLEESGGGLVQAGGSLRLSCAASGRTFGRYDMGWYRQAPGKEREFVAAISTRGSRTYYADSVKGRFTISRDNAKNTVYLQMNSLKAEDTAVYYCAAEYLPRPYSWIYYYWGQGTQVTVSS | high polyreactivity |
| QVQLVESGGGLFHAGGSLRLSCAASGRIFYNYAMGWSRQAPGKERELVAAISGSGGSTYYADSVKGRFTISRDNAKNTVYLQMNSLKPDDTAVYYCSTSGPQYYSRNFDYWGQGTQVTVSS | low polyreactivity |
| QVQLVESGGGLVQAGGSLRLSCAASGSTFSYNDMGWYRQAPGKESELVADINVSVGRTYYADSVKGRFTISRDNAKNTVYLQMNSLTPEDTAVYYCNATLYTITSYVYAYDYWGQGTQVTVSS | low polyreactivity |
| QVQLVESGGGLVQAGGSLRLSCAASGLTFPFYTMGRYRRAPGKERELVAAISRRGGSTYYADSVKGRFTISRDNAKNTVYLQMNSLKPEDTAVYYCAADKYSWYDYWGQGTQVTVSS | low polyreactivity |
| QVQLVESGGGLVQAGGSLRLSCAASGSIFVKNVMGWYRQAPGKERELVAAITRGGRTYYADSVKGRFTISRDNAKNTVYLQMNSLKPEDTAVYYCNAYRLSYTYGYWGQGTQVTVSS | high polyreactivity |
| QVQLVESGGGLVQAGGSLRLSCAASGSTFGSNAMGWYRQAPGKERELVAAIRGIVGSTYYADSVKGRFTISRDNAKNTVYLQMNSLKPEDTAVYYCNKAEVSTYYHTRSTYGGYDYWGQGTQVTVSS | low polyreactivity |
| PVQLVESGGVLVQAGGSLRLSCAASGRTFSYYAMGWYRQAPGKERELVADNNCSGTSTDYADSVKGRFTISRDNAKNTVYLQMHSLKPEDTEVYYCPAYLIVYYGDETPYASLHDYWGQGTQVSVSS | low polyreactivity |
| QVQLVESGGGLVQAGGSLRLSCAASGSIFTWYVMGWYRQAPGKERELVAAITSGGRTYYADSVKGRFTISRDNAKKTVYLQMNSLKPEDTAVYYCAADSIGRLWGYGYWGQGTQVTVSS | high polyreactivity |
| QVQLVESGAGLVQAGVSLRLSCAASGRTFPYYAMGWYRQAPGKERELVARITYSGGSTYADSVKGRFPISRDNAKNTVYLQMNSLKPEDTAVYFCAAQYYAYLLDGYHRYDYWGLGTQVTVSS | high polyreactivity |
| QVQLVESGGGLVQAGGSLRLSCAASGRIFQYYAMGWYRQAPGKERELVAAISRTGSTYYADSVKGRFTISRDNGKNTVYLQMNRLNPEDTAVYYCAADYWPQSNRWVYFRYGYWGQGTQVTVSS | high polyreactivity |
| QVQIVESGRGLVQAGGSLRLSCAPSGRIFIYNAMGWYIQAPGKERELVAAISWRGGRTYYADSVKGRFTISRDNAKNTVYLQMNRLKPEDTAVYYCNAEPYGYERLYDYWGQGTQVNVSS | high polyreactivity |
| QVQLVESGGGLVQAGGSLRLSCAASVSTIARYAMGRYRQAPGKERELVAAISRTGRTYYADSVKGRFTISRDNAKNTVYLQMNSLKPEDTAVYYCNAYYGPRGYGYWGQGTQVTVSS | high polyreactivity |
| QVQLVESGGGLVQAGGSLRLSCAASGRTSRNNVMGWYRQAPGKERELVAAITKRTDRTYYADSVKGRFTISRDNAKNTVYLQMNSLKPEDTAVYYCAADLSLSTGGRAFPTYGYWGQGTQVTVSS | high polyreactivity |
| QVQLVESGGGLVQAGGSLRLSCAASGSIFAYYALGWYRQAPGKERELVASIDWSGDLYVRDSVKGRFTISRDNAKNTVYFLMNSLKPEDTAVYYCAKDVSFQYGTGYDYWGQGNQVTVSS | low polyreactivity |
| QVQLVESGGGLVQAGGSLRLSCAASGRIFQWYAMGSYRQAPGKERELVATISDGDSTNYADSVKGRFTISRDNAKNTVFAQMNSLKTEDTEVYYCAALDSYYDSYYWYDYWGQGTQVTVSS | high polyreactivity |
| HVQLVESGGGLVQAGGSLRLSCAASGYTFWDYAMGWYRQAPGKEREFVAGISFSDGGTYYADSVKGRFTISRDNAKNTVYLQMNSLKPEDTAVYYCAATYPYSWVYSGYYYWGQGTQVTVSS | low polyreactivity |
| QVQLVESGGGLVQAGGSLRLSCAASGSTYRGYAMGWYRQAPGKERELVAAISWTGGSTYNADSVKGRYTISRDNAKNTVYLQMNSLKPEDTAVYYCNTYVKDWGGYSYRYRYYYWGQGTQVTVSS | high polyreactivity |
| QVQLVESGGGLVQAGGSLRLSCAASGSTFFGNAMGWYRQAPGKERELVAAITSGGSTNYADSVKGRFTISRDNAKNTVYLQMNSLKPEDTAVYYCAKPSRWGWTGFYAYDYWGQGTQVTVSS | low polyreactivity |
| QVQLVESGGGLVQAGGSLRLSCAASGLIFYYYAMGWYRQAPGKERELVAAITAIGDRTYYADSVKGRFTISRDNAKNTVYLQMNSLKPEDTAVYYCAAGWLLYNRYGIITYDYWGQGTQVTVSS | high polyreactivity |

| Sequence | polyreactivity (PSR sort gate) |
| --- | --- |
| QVQLVESGGGLVQAGGSLRLSCAASGFIFYDYAMGWYRQAPGKERELVAAISSGGSTNYADSVKGRFTISRDNAKNTVYLQMNSLKPEDTAVYYCNVDYGVHVPPRDYWGQGTQVTVSS | low polyreactivity |
| QVQLVESGGGLVQAGGSLRLSCAASGRTFTSYPMGWYRQAPGKERELVAAISQGGGRTYYADSVKGRFTISRDNAKNTVYLQMNSLKPEDTAVYYCNTVSLSLRYDYWGQGTQVTVSS | high polyreactivity |
| QVQLVESGGGLVQAGGSLRLSCGASGRIFRGYAMGWYRQGPGKERELVAAISRRGGSTYYADSVKGRFTISRDNAKNTVYLQMNSLKPVDTAVYYCNADGVHYVAYAGGYWGQGTQVTVSS | high polyreactivity |
| QVQLVESGGGLVQAGGSLRLSCAASGFIFGRYARGWYRQAPVKERELVAAINWSGGSTYYADSVKGRFTISRDNAKNTVYLQMNSLKPEDTAVYYCAARTSRRDGGGSYDYWGQGTQVTVSS | high polyreactivity |
| QVQLVESGGGLVQAGGSLRLSCAASGSTFTTYAMGWYRQAPGKERELVAAISNNGGRTFYADSVKGRFTISRDNAKNTVYLQMNSLKPEDTAVYYCAAEYGLYAPGYYYWGQGTQVTVSS | low polyreactivity |
| QVQLVESRGGLVQAGGSLRLSCAASGRILPYHVMGWYSQAPGKERELVAAISSGGTTDYADSVKGRFTISRDNANNTVYLQMNSLKPEDTAVYYCAATYDYWTWGYDYWGQGTQVTVSS | low polyreactivity |
| QVQLVESGGGLVQAGGSLRLSCAASGSIFPFYALGLYSQAPGTDRELVAGISNGDSPNYADSVKGRFTIARDNAKNSVYLQLNSLKPEDTGVYYCATDLPGGRYYGPYDYWGQGTQGTVSS | low polyreactivity |
| QVQLVESGGGLVQAGGSLRLSCAASGFIFGDYVMGRYRQAPGKEREVVAAITRRGGRTNYADSVKGRFTISRDNAKNTVFLQMNSLIPEDNAVFYCNAQSGVVADDYWGQGSQVTVSS | high polyreactivity |
| QVQLVESGVGLVQAGGSLRLSCAASGRIFRTYAMGWYRQAPGKERELVAAITSGGGSTYYADSVKGRFTISRDNAKNTVYLQMNSLKPEDTAVYYCAARPGIRSYPPGYGYWGQGTQVTVSS | high polyreactivity |
| QVQLVESGGGLVQAGGSLRLSCAASGFNFRYYTMGWYRQAPGTERELVAVITSGGTTYYADSVKGRFTISRDNAKNTVYLQMNSLKPEDTAVYYCAADYRPRLYGVGVDYWGQGTQVTVSS | low polyreactivity |
| QVQLVESVGGLVQAGGSLRLSCAASGRTFTYNSMGSYRQAPGKERELVAAITRRGGSTYYADSVKGRFTISRDNAKNTVYLQMNSLKPEDTAVYYCAATGYLRTYDYWGQGTQVTVSS | high polyreactivity |
| QVQLVESGGGLVQAGGSLRLSCAASGRIFPDNTMGGYRQAPGKERELVAVITYSGGSTYYADSVKGRFTISRDNAKNTVYLKMNSLKPEDTAVYYCAARDYYIWFAEVYYWGQGTQVSVSS | low polyreactivity |
| QVQLVESGGGLVKAGCSLRLICAASGSIFYQYAMGWNRQAPGNVRELVAAITRRGSRTYYADSVKGRFTISRDNAKNTVYLQMNSLKPEDTAVYYCAAGSFYGIYYYRTDDYWGQGTQVTVSS | high polyreactivity |
| QVQLVESGGGLVQAGGSLRLSCAASGIIFTDYAMGWYRQAPGKERELVAAISSGGGSTYYADSVKGRFTISRDNAKNTVYLQMNSLKPEDTAVYYCAAEGYLISGAGDYLYDYYWGQGTQVTVSS | high polyreactivity |
| QDQLVESGGGLVQAGGSLRLSCAASGSTMRWYAMGWYRQAHGKERELVARISWTTGSTYYADSVKGRFTISRDNAKNTVYLQMNSLKPEDTAVYYCAVASGQSFYWGQGTQVTVSS | high polyreactivity |
| QVQLVETGAGLVQAGGSLRLSCAASGILLFNAMGWNTQPPGKERELVAAINSGGSTNYADSVKGRFTISRDNAKNTVYFQMNSLIPEDTAVYFCAKDTPFTLRVWAEGGMDYWGHGTQVTVSS | low polyreactivity |
| QVQLVESGGGLVQAGGSLRLSCAASGRTFYRYAMGWYRQAPGKERELVAVISTDGSSTYYADSVKGRFTISRDNAKNTVYLLMNSLKPEDTAVYYCAARSLAWLFGRNYWGQGTQVTVSS | high polyreactivity |
| QVQLVESGGGLVQAGGSLRLSCAASGSTFGNNAMGWYRQAPGKERELVASINWNGGSTYYADSVKGRFTISRDNAKNTVYLQMNSLKPEDTAVYYCADDRVWAYWTYGYWGQGTQVTVSS | low polyreactivity |
| QVQLVESGGVLVQAGGSLRLSCAASGRIFGSYTMGWYRQAPGKERELVAGISRRGGSTYYADSVKGRFTISRDNAKNTVYLQMNSLNPEDTAVYYCAAVSSVFSVRYDYWGQGTQVTVSS | high polyreactivity |
| QVQLAESGGGLVQAGGSLRLSCAASGSTFVWYAMGWYRQAPGKEWELVAVIDWSGGSTSYADSVKGRFTISRDNAKNTVYFQMNSLKPEDTAVYYCAADYGHYYGLYYWGQGTQVTVSS | low polyreactivity |
| QVQLVESGGGLVQAGGSLSLSCAASGSTFGRYVMGWDRQAPGTERELVAAISYSGGRSYYADSVKGRFTMSRDNAKNTVYLQMNSLKPEDTAVYYCNAYGIDTGDYWGQGTQVTVSS | high polyreactivity |
